Target: antigen CD3 (Biacore analysis) (Homo sapiens (Human)) (UniProt P07766)
Test: SPR (Biacore)

B1: huOKT3 IgG1-aGlyco (antibody, V domains shown)
VH: QVQLVQSGGGVVQPGRSLRLSCKASGYTFTRYTMHWVRQAPGKGLEWIGYINPSRGYTNYNQKFKDRFTISRDNSKNTAFLQMDSLRPEDTGVYFCARYYDDHYCLDYWGQGTPVTVSS
VL: DIQMTQSPSSLSASVGDRVTITCSASSSVSYMNWYQQTPGKAPKRWIYDTSKLASGVPSRFSGSGSGTDYTFTISSLQPEDIATYYCQQWSSNPFTFGQGTKLQITR
Kd: 64.6 nM | koff: 0.109 s⁻¹ | kon: 1.68e+06 M⁻¹ s⁻¹
